According to the supplement of paper PMC12764529:
± gives the half width of the 95% confidence interval.

Assay: folding stability dG unfold from trypsin proteolysis; higher = more stable
Method in brief: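 How resistant each design was to proteolysis was captured as K50, inferred by Bayesian fitting of sequencing counts. Unfolding free energy was then derived relative to a sequence-predicted unfolded-state K50 and a shared folded-state K50, per protease or combined. Digestion used trypsin and chymotrypsin at 11 threefold-diluted concentrations plus a no-protease condition, on mini-proteins under 80 residues without cysteine in a PA-tagged cDNA display construct. Designs were kept only when AlphaFold2 dimer inter-PAE was above 15.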

Row | Sequence | folding stability dG unfold [kcal/mol]
1 | SAGGSAPGVITFMLPLDDIPPDPDGKWTHNEIKDHIRPFIQEAFGKDDIEIDVSPHPNGWVRITIRSAGGSA [r15_562_TrROS] | 2.41 ± 0.074
2 | SKTVIIEVPAKDLDKIKELIKKLKPGQKVKIVFKDANGKLITVTIEVKPAPPPKISLEELSEEQRKALEKSA [r9_1103_TrROS_Hall] | 1.53 ± 0.081
3 | SAGGSAGGSAGGPDPEAYPFRYPDREFVLVRNPDEPDTYTILYPDDKVETVPAEDILPESAGGSAGGSAGGS [r10_556_TrMRF] | 0.473 ± 0.027
4 | SAGGSASSPGTPVKLNVNAIITKKLPDGTITTEPGRTLDLPEEEAIEYLKSLPSSYSVEIESIVVESAGGSA [r15_833_JUSTAS] | -0.347 ± 0.15
5 | SAGGKLTITVKVNENGELIATVEITEVVENAKPGDVLTVKAKVVNPKTKETKEIEAKIKVENGKLVLESAGG [r13_208_TrROS_Hall] | 2.1 ± 0.077
6 | SAGGSAGGSAGPWVWIIMIHMEIERVTVEVRPDPDGKWEYKLEITIKIEIHIIPLPPGATSAGGSAGGSAGG [r11_24_TrROS] | 3.55 ± 0.15
7 | SAGGSAGGSMPGETVTLNVKTTVEVTTTLSSPSGSPFPVSVTREVTIPITVSSEELKKGLITLESAGGSAGG [r6_138_JUSTAS] | -0.473 ± 0.2
8 | SAGGPPFKIKEINIQYNPDAGYVTMTFTFDDGATVEAMISPEEGRIPGKVEVPGKEIEHEFEIPVPPSAGGS [r8_363_TrROS] | 1.4 ± 0.041
9 | SAGGSAGGSAGDFKIKDVEVERPPGRHRVEIRLPGNKKPIKIDNVPTPDDAEDAVKELLKSAGGSAGGSAGG [r11_183_TrROS] | 0.0405 ± 0.073
10 | SAGGSAGGSIPPDVPVDLGAEVEYFPPGGVRRVRFSAPDGTPVATATFVFRGGELVEVRIEPASAGGSAGGS [r12_264_TrMRF] | 1.89 ± 0.053
11 | SAGGSAGGSAPFNINDPNIGEVEIFPGPNAVILIKLPDGGYLVITNNGEDNVSIELVSDDESAGGSAGGSAG [r3_62_TrMRF] | 1.72 ± 0.13
12 | SAGGSAGGMVYITVDIKKTDPLNGTEREEVITVKVNPDEVEKVIEELKSAPVNVEILKVTIIPPSAGGSAGG [r6_151_JUSTAS] | 1.75 ± 0.075
13 | SKGKKYELIVLLFKVEDPEKYPVEKKVSVPKEFIDFLKKKGFKIIEIKTRVIPSSDGSVYVEHVALVEVDSA [r9_465_TrMRF] | 2.62 ± 0.12
14 | SAGGSKKEIEALKGKTVTFPKIRDPKTNELLEPVKVKIVEVKYDKDTKKIYIKVEVDGKIYTFEIDSAGGSA [r2_314_TrROS_Hall] | 0.868 ± 0.19
15 | SAGMKIKIKLENGEEIEIDKENPVIKIKNKETGEEVELVFDPENEDEIYIFNKKTKKLIAKFKITEIEPSAG [r5_761_TrROS_Hall] | 1.87 ± 0.092
16 | SAGGSAGGSASAEEEARRLAPEGKLVYKITKGNETTIVALTPEEAEALKKKNPDVEIEPILLSAGGSAGGSA [r18_198_JUSTAS] | 1.37 ± 0.035

Row | Sequence | folding stability dG unfold [kcal/mol]
17 | SAGGATITLEPGTFTIEFPENELVIPVPVPEERPDVSPEEAAREIVEELREKYGLPPPEDLTVELAPSAGGS [r8_402_JUSTAS] | 0.299 ± 0.13
18 | SAGGSAAPLVLPVRIYGPNENVTAEASEYDPGTGIVRLTVTHPDGTKTTLTFTGPAALLPPDADLNSAGGSA [r15_596_TrMRF] | 0.611 ± 0.023
19 | SAGGSAGMNRVSLKPLPDGTYEVTITYPDGSTSTYTVPGPAVSLEEILKRLNIPESIEVEDVEPLGSAGGSA [r15_167_JUSTAS] | 2.64 ± 0.089
20 | SAGGGMRAVEVTVTLTVPSSTSVEEAVERVKAEFEAAGLEAEPVSVTVTPVPGSVTVTVRLRVLRPPASAGG [r13_351_JUSTAS] | 2.31 ± 0.04
21 | SMKVTVSVTYNPETQTLELRFTVYERDPNGNWVPTASFPITLPVTIPAPPVPVVEVPEDATLPEDVALADSA [r9_888_TrMRF] | 3.64 ± 0.18
22 | SAGGSITLPPVELPNGEKVTVTIEITPVPGAPPEERYRVTVTRTNPKTGTTETTELEVTRKGSVVTLESAGG [r13_208_JUSTAS] | 2.16 ± 0.059
23 | SAGGKEEKVVEIEIKKEKLKKSKDGKVYSAEEIAKKLKKELPEENVEVEIVSYDKEKGVVKIKIKVKSAGGS [r16_284_TrROS_Hall] | 1.51 ± 0.12
24 | SAGGKTYTIVLPIPPNVPLEEYIKKIEKLLKKLKKNVPISFNKQKKLPNGYYLINFTLTDNKVTGFGSAGGS [r8_7_TrMRF] | 1.06 ± 0.059
25 | SAGGSAGGSSKAEELAKKLGVKVKIIDKFTLPGNKKVILAKVKFPGKGYALVLYDGKTPVLLPSAGGSAGGS [r12_279_TrMRF] | 1.97 ± 0.07
26 | SAGGSAGGSAGGPIPGSTIPSVPVKIVNIHPDGTKTEYFNSDIPIDALKEKFPGEIEFESSAGGSAGGSAGG [r17_125_TrMRF] | 0.562 ± 0.065
27 | SAGMTIVIEIPSSTSYEDAVKAIKKIAKEIKEKGKKFKIVVLTKDPKIAEAIKKALEELGIPLEVKIGSAGG [r19_268_TrMRF] | 2.77 ± 0.07
28 | SAGGEPGALSSSTYTITAPAKSVSKTVTVSYNPADGTATITFPESGKTITVPAVSDEEVLALIKEILLSAGG [r13_439_JUSTAS] | 0.697 ± 0.025
29 | SAMKIYTLPDGSRLIVIPDPYSDSLSVLLVTRSPDGTYHVTLIRYHPNGEKETFTRTGDLETAIRELLSSAG [r14_179_TrMRF] | 3.55 ± 0.077
30 | SAGGSAGGSAMQPIRIKITLYNPDNGDTRTYTVEVPDPNMSLDAIAKQLPPGYRIKKVSIMSAGGSAGGSAG [r3_80_TrROS] | 3.38 ± 0.13
31 | SAGGSAGGMTIKIEVNGKIIEIELPEGIKEITKIEIKKDGTITLYIKDNKKKITIKLDKLKKLKSAGGSAGG [r6_369_TrROS_Hall] | 1.2 ± 0.09
32 | SPPGLRIRIESPDNGEPIPFPIPPNVEVDVKRDKNGNFIATIKIQNPENGKKWTIEIDAPMRIVEIEPVPSA [r9_467_TrROS] | 1.6 ± 0.076
